Data on four molecules can be found in US20170096493A1 (EISAI R AND D MANAGEMENT, published 2017).

In test [1] the target is T1, Notch4 with a part of the intracellular domain substituted with GAL4 DNA binding domain, on b.end3 reporter …. Briefly: cell-based or functional assay.
Test [2] addresses T1, Notch4 with a part of the intracellular …. Briefly: cell-based or functional assay. This is another data set of the same source.
Test [3] addresses T2, Human Notch4-NRR domain Fc fusion protein (human, UniProt Q99466 1046-1445, limits assumed).
T2 construct: Expressed in a CHO cell line, used from culture supernatant; 1 is named; also called Human Notch4-NRR Fusion Protein; not shown: Fc
T2 sequence: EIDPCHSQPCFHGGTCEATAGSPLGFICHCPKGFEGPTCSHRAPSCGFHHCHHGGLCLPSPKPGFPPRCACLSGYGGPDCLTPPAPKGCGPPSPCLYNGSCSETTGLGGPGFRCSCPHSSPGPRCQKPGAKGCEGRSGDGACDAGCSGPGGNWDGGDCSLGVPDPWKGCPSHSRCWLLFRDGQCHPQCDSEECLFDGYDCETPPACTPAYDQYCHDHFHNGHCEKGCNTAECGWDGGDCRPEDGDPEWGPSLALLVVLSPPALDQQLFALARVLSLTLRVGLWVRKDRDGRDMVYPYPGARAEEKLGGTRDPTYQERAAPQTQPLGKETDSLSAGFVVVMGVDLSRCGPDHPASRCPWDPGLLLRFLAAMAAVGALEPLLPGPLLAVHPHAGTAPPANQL
Briefly: SPR (Biacore) as for Table 30; Notch4-NRR-Fc captured, antibody injected; averaged, N=2. On the procedure:
(§1) Kinetic analysis of further anti-Notch4 inhibitory humanized antibodies was carried out as follows. Human Notch4-NRR domain Fc fusion proteins were expressed with a CHO cell line. The antigen in the culture supernatant was captured by the anti-human Notch4 antibody fixed on a CM5 sensor chip that recognizes different epitopes of human Notch4. The humanized anti-human Notch4 antibody was then injected onto the sensor chip at various concentrations. The interaction and disassociation constants thereof were calculated according to manufacturer's instructions.
On the technique in general: In SPR one partner is held on a chip, and binding of the other changes the refractive index at the surface.

In test [4] the target is T3, Human Notch4-NRR domain fused with secretory alkaline phosphatase (SEAP) and 10× histidine tag (human, UniProt Q99466 1046-1445).
T3 construct: 1 is named; not shown: secretory alkaline phosphatase (SEAP); 10x histidine tag
T3 sequence: T2 sequence
Briefly: SPR (Biacore); antibody captured by anti-human IgG Fc on CM5, Notch4-NRR-SEAP-His injected. On the procedure:
(§2) Kinetic analysis of the interaction of human, cynomolgus monkey, mouse, and rat Notch4-NRR domains with Antibody B was carried out with BIACORE. […] The genes for these proteins were transfected into Expi293F cells in Opti-MEM (INVITROGEN) using ExpiFectamine 293. These cells were cultured in Expi293 Expression Medium (INVITROGEN). Briefly, cells were diluted to 7.5×10⁷ cells/25.5 mL, and transfected by ExpiFectamine 293 reagent on Day 0. About 16 hours after transfection, 150 uL of ExpiFectamine 293 Transfection Enhancer 1 and 1.5 mL of ExpiFectamine 293 Transfection Enhancer 2 were added to each flask. The supernatant was collected on Day 4. These antigens were purified with Ni-NTA Superflow column (QIAGEN). The interaction was analyzed as below. The purified Antibody B was captured by anti-human IgG Fc antibody fixed on a CM5 sensor chip (GE healthcare). The purified Notch4-NRR fusion proteins were injected onto the sensor chip at 8 different concentrations, and the interaction and dissociation thereof were observed as per manufacturer's instructions.

Test [5] concerns the target T4, Cynomolgus monkey Notch4-NRR domain fused with SEAP and 10× histidine tag (cynomolgus monkey, UniProt P05187 23-511 (human entry)).
T4 construct: not shown: 10x histidine tag
The description is as above. The protocol: as §2

In test [6] the target is T5, Mouse Notch4-NRR domain fused with SEAP and 10× histidine tag (mouse, UniProt P31695 1042-1441).
T5 construct: domain: Notch4-NRR domain; not shown: secretory alkaline phosphatase (SEAP); 10x histidine tag
T5 sequence (looked up): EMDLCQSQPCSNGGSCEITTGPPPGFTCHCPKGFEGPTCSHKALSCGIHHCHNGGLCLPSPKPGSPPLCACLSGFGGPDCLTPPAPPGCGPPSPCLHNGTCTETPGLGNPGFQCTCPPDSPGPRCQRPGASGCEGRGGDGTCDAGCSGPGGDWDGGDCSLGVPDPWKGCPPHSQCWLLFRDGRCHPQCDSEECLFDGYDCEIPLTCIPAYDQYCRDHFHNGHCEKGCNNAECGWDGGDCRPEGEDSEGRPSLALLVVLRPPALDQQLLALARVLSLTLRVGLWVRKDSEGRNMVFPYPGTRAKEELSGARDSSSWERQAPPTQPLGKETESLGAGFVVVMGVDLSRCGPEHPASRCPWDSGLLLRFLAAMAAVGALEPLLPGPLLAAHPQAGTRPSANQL
Described as above. The protocol: as §2

The target of test [7] is T2, Human Notch4-NRR domain Fc fusion …. Briefly: SPR (Biacore); Notch4-NRR-Fc captured by another anti-Notch4 antibody on CM5, antibody injected. On the procedure: as §1
Test [8] concerns the target T6, Human Notch4-NRR-SEAP-HA-His (human, UniProt Q99466 1046-1445).
T6 construct: also called human Notch4-NRR-SEAP-His; human Notch4 NRR domain; not shown: secretory alkaline phosphatase (SEAP); hemagglutinin (HA) tag; histidine tag (x10)
T6 sequence: T2 sequence
Briefly: SPR (BIAcore T100); antibody captured by anti-human IgG Fc on CM5, NRR-SEAP-HA-His injected at 6 concentrations. The protocol:
Kinetics analysis using BIAcore T100 was performed for the interaction between the NRR domain of human Notch isotypes (Notch1, Notch2, Notch3, and Notch4) and Antibody B. Antibody B was purified from the culture supernatant of a stable expression CHO cell line of Antibody B with sequential use of protein A affinity chromatography, Capto Q anion exchange chromatography, and UNOsphere S cation exchange chromatography. Fusion proteins of Human Notch1 NRR domain (Genbank Accession No. 017617; sequence positions 1307-1733), human Notch2 NRR domain (Genbank Accession No. 024408; sequence positions 1239-1650), human Notch3 NRR domain (Genbank Accession No. 000435; sequence positions 1246-1641), and human Notch4 NRR domain (Genbank Accession No. NP_004548.3; sequence positions 1046-1445) with secretory alkaline phosphatase (SEAP), a hemagglutinin (HA) tag, and a histidine tag (×10) were created, and these were purified with HisTrap™ Fast Flow column (GE Healthcare). The interaction between Antibody B and the NRR domain of each human Notch isotypes was measured with the following method. The purified Antibody B was captured by anti-human IgG Fc antibody fixed on a CM5 sensor chip (GE Healthcare). The purified NRR domain of each human Notch isotypes was injected onto the sensor chip at 6 different concentrations, and the interaction and dissociation with the antibody were observed as per operation manual.

For test [9], the target named is T2, Human Notch4-NRR domain Fc fusion …. Briefly: SPR (Biacore) as for Table 30; Notch4-NRR-Fc captured, antibody injected; averaged, N=5. On the procedure:
as §1

Test [10] has the same target. Briefly: SPR (Biacore) as for Table 30; Notch4-NRR-Fc captured, antibody injected; averaged, N=9. The protocol:
as §1

T4 sequence (P05187 23-511): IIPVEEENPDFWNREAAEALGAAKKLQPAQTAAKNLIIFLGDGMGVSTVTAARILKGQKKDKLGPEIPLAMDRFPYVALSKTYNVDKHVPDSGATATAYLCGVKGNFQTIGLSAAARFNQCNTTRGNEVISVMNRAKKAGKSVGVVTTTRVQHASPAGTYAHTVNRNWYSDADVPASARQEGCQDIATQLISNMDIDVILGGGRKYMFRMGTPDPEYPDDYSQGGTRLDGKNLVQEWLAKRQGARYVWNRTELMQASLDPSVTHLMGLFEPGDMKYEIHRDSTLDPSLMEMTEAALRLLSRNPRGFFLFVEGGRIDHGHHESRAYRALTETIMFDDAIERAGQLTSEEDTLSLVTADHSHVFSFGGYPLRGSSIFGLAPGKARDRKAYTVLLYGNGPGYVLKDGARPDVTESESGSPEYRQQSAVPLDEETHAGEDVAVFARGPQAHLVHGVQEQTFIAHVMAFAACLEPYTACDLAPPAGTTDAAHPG

B1: Antibody B (antibody, human IgG2, kappa)
heavy: EVQLVESGGGLVQPGGSLRLSCAASGFTFSSYGMSWVRQAPGKGLELVATINSNGGRTYYPDSVKGRFTISRDNSKNTLYLQMGSLKAEDMAVYYCARDQGFAYWGQGTLVTVSSASTKGPSVFPLAPCSRSTSESTAALGCLVKDYFPEPVTVSWNSGALTSGVHTFPAVLQSSGLYSLSSVVTVPSSNFGTQTYTCNVDHKPSNTKVDKTVERKCCVECPPCPAPPAAAPSVFLFPPKPKDTLMISRTPEVTCVVVDVSHEDPEVQFNWYVDGVEVHNAKTKPREEQFNSTFRVVSVLTVVHQDWLNGKEYKCKVSNKGLPAPIEKTISKTKGQPREPQVYTLPPSREEMTKNQVSLTCLVKGFYPSDIAVEWESNGQPENNYKTTPPMLDSDGSFFLYSKLTVDKSRWQQGNVFSCSVMHEALHNHYTQKSLSLSPG
light: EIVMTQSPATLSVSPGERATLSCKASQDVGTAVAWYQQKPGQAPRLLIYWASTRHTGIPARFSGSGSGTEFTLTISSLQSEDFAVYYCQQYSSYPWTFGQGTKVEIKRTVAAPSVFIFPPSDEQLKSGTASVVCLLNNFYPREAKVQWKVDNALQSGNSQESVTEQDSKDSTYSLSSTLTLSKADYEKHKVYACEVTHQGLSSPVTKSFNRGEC
notes: Humanized IgG2 (V234A, G237A)/κ; also called HK3L3 (Lys-); HK3L3(Lys-)
As to B1, the “IC50 of relative luminescence (%), Notch4-GAL4 luciferase reporter assay, reporter cells stimulated with solid phased DLL4” value in test [1] was determined as 0.011 µg/mL. The “% of Control (relative luminescence), Notch4-GAL4 luciferase reporter assay, antibody at 10 µg/ml” value (from here on “% of Control (relative luminescence)”) in test [2] is 10.8 % of Control. Besides, the Kd in test [3] is 0.331 nM; in [4], 3.74 nM; in [5], 3.62 nM; in [6] it was 11.2 nM; in [7] it was 0.441 nM; in test [8], 30.5 nM. In addition, the koff in test [3] came out at 0.000822 s⁻¹; in test [4], 0.00118 s⁻¹; in test [5], 0.00106 s⁻¹; in [6], 0.00727 s⁻¹; in [7], 0.00071 s⁻¹; in [8], 0.000831 s⁻¹. The kon in test [3] was determined as 2.48e+06 M⁻¹ s⁻¹; in [4], 317000 M⁻¹ s⁻¹; in test [5], 295000 M⁻¹ s⁻¹; in [6] it was 601000 M⁻¹ s⁻¹; in test [7], 1.66e+06 M⁻¹ s⁻¹; in test [8] it was 27200 M⁻¹ s⁻¹.

B2: Antibody D (antibody, human IgG2, kappa)
heavy: B1 heavy
light: DIQMTQSPSSLSASVGDRVTITCKASQDVGTAVAWYQQKPGKSPKLLIYWASTRHTGVPSRFSGSGSGTDFTLTISSLQPEDVATYFCQQYSSYPWTFGQGTKVEIKRTVAAPSVFIFPPSDEQLKSGTASVVCLLNNFYPREAKVQWKVDNALQSGNSQESVTEQDSKDSTYSLSSTLTLSKADYEKHKVYACEVTHQGLSSPVTKSFNRGEC
notes: Humanized IgG2 (V234A, G237A)/κ; also called HK3L5 (Lys-); HK3L5(Lys-)
B2: the “% of Control (relative luminescence)” value in test [2] is 21 % of Control. In addition, in test [9], the Kd came out at 0.529 nM, the dissociation rate constant (koff) was 0.00109 s⁻¹ and the association rate constant (kon) amounted to 2.1e+06 M⁻¹ s⁻¹. Also, in test [7], the affinity, expressed as Kd, was 0.475 nM; the koff was 0.000863 s⁻¹; the kon worked out at 1.82e+06 M⁻¹ s⁻¹.

B3: Antibody G (antibody, human IgG2, kappa)
heavy: B1 heavy
light: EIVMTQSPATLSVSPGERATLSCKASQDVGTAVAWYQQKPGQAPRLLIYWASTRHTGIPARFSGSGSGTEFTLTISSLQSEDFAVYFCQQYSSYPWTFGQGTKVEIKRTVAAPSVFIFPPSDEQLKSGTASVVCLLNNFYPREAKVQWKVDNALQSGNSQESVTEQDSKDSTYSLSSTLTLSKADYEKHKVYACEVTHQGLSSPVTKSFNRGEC
notes: Humanized IgG2 (V234A, G237A)/κ; also called HK3L4 (Lys-); HK3L4(Lys-)
For B3, the “% of Control (relative luminescence)” value in [2] is 13 % of Control. Also, in test [9], binding was put at a Kd of 0.76 nM, the koff came out at 0.00124 s⁻¹ and the kon is 1.86e+06 M⁻¹ s⁻¹. In test [7], the equilibrium dissociation constant (Kd) is 0.633 nM, the koff is 0.00111 s⁻¹ and the on-rate (kon) is 1.78e+06 M⁻¹ s⁻¹.

B4: Mouse anti-human Notch4 monoclonal antibody 6-3-A6 (antibody, V domains shown)
VH: EVQLVESGGGLVQPGGSLKLSCAASGFTFSSYGMSWVRQTPDKRLELVATINSNGGRTYYPDSVKGRFTISRDNAKNTLYLQMSSLKSEDTAMYYCARDQGFAYWGQGTLVTVSA
VL: DIVMTQSHKFMSTSVGDRVSITCKASQDVGTAVAWYQQKPGQSPKLLIYWASTRHTGVPDRFTGSGSGTDFTLTISNVQSEDLADYFCQQYSSYPWTFGGGTKLEIK
notes: Mouse hybridoma antibody; cloned with primers for mouse IgG1 heavy chain and mouse Igκ light chain; also called Original
In the case of B4, in test [10], binding was characterised by a dissociation constant (Kd) of 0.321 nM, the koff came to 0.000742 s⁻¹ and the kon came out at 2.35e+06 M⁻¹ s⁻¹.

As a reminder, the Kd is a measure of binding affinity in units of concentration. The koff is a measure of how fast the partners let go of each other. The kon is the rate constant with which the complex forms.
